According to publication PMC3608606, “Arabidopsis DEAD-Box RNA Helicase UAP56 Interacts with Both RNA and DNA as well as with mRNA Export Factors”:

Tests used:
[1] = target: T1, GST-UAP56 (Arabidopsis thaliana (Mouse-ear cress), UniProt Q9LFN6); test: GST pull-down; ATP present
T1 chain: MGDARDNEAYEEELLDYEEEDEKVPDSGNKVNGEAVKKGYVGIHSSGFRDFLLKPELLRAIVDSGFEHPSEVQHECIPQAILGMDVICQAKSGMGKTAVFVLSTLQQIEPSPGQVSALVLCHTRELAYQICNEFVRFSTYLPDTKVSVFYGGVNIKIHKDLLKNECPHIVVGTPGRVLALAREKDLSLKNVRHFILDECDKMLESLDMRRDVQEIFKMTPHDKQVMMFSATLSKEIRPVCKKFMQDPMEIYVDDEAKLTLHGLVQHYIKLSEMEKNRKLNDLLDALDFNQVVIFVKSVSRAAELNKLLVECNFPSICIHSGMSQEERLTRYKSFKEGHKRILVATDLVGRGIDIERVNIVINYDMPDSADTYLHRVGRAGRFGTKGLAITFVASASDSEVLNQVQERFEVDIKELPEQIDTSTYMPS

[2] = target: T2, UAP56 (Arabidopsis thaliana, UniProt Q56XG6 1-427); test: MST; MST: 50 nM labelled oligonucleotide in EMSA buffer (composition cited, ref 44), 28 C, Hill fit; EMSA: 32P probe, PAGE, same cited protocol; salt and pH not given; conditions: protein: recombinant; tags: 6xHis (pQE9); label: fluorescent; blunt
T2 sequence: T1 chain

[3] = target: T3, Df31 (Decondensation Factor 31) (Drosophila, UniProt O16043 1-183); test: MST; up to 411 uM protein; MST: 50 nM labelled oligonucleotide in EMSA buffer (composition cited, ref 44), 28 C, Hill fit; EMSA: 32P probe, PAGE, same cited protocol; salt and pH not given; conditions: protein: recombinant; label: fluorescent; blunt
T3 sequence: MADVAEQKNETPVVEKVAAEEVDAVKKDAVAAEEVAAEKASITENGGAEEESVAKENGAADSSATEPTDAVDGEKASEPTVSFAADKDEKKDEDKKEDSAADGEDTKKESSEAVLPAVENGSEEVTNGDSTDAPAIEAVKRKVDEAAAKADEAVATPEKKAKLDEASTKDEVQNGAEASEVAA

[4] = target: T2, UAP56; test: EMSA; 0.25-5 uM protein; single complex; MST: 50 nM labelled oligonucleotide in EMSA buffer (composition cited, ref 44), 28 C, Hill fit; EMSA: 32P probe, PAGE, same cited protocol; salt and pH not given; conditions: protein: recombinant; tags: 6xHis (pQE9); label: 32P; blunt
[5] = target: T2, UAP56; test: EMSA; 0.25-5 uM protein; two complexes; less efficient than RNA; MST: 50 nM labelled oligonucleotide in EMSA buffer (composition cited, ref 44), 28 C, Hill fit; EMSA: 32P probe, PAGE, same cited protocol; salt and pH not given; conditions: protein: recombinant; tags: 6xHis (pQE9); label: 32P; blunt

B1: 6xHis-HMGB2 (protein)
chain: MKGAKSKTETRSSKLSVTKKPAKGAGRGKAAAKDPNKPKRPASAFFVFMEDFRETFKKENPKNKSVATVGKAAGDKWKSLSDSEKAPYVAKAEKRKVEYEKNIKAYNKKLEEGPKEDEESDKSVSEVNDEDDAEDGSEEEEDDD
[1]
  binding result: no binding

B2: 6xHis-MOS11 (protein)
chain: MATNGEKVTATVVNGGGLSTGENPKKIVDLNTTELDRTDDILDGEVKGFSDSGEKKEETDSNGIGSTAGVDSGDISPVDDIQKKIRRAERFGVSVKLTEEEKRNSRAERFGTVAAAVVNGSEGTKKAEELKRKARADRFGVPSATSTTDKTEEEAKKKARLARFGKETKVDSAEENKRKARALRFSKEASADASSDLPEKQIIGKEAAVSGSAA
[1]
  binding result: binds

B3: R29ds (dsRNA)
RNA 1: CCUCCUUUUUUCUUUUUUUUUUUUUUUCU
RNA 2: AGAAAAAAAAAAAAAAAGAAAAAAGGAGG
[2]
  Kd: 51.5 ± 5.3 µM

B4: D29ds (dsDNA)
DNA 1: CCTCCTTTTTTCTTTTTTTTTTTTTTTCT
DNA 2: AGAAAAAAAAAAAAAAAGAAAAAAGGAGG
[2]
  Kd: 6.5 ± 0.75 µM
[3]
  binding result: no binding

B5: R25ds (dsRNA)
RNA 1: AAAACAAAAUAGCACCGUAAAGCAC
RNA 2: GUGCUUUACGGUGCUAUUUUGUUUU
[4]
  binding result: binds

B6: D25ds (dsDNA)
DNA 1: AAAACAAAATAGCACCGTAAAGCAC
DNA 2: GTGCTTTACGGTGCTATTTTGTTTT
[5]
  binding result: binds
